In EP4722245A1, “ANTIBODY TARGETING ITGA2, ANTIBODY DRUG CONJUGATE THEREOF, AND USE” (Foreseen Technology (Beijing) Co., Ltd., priority 2023, dated 2024):
Residue numbers refer to the chain shown, from its start. Each block holds one binder with its values, some of them ahead of it.

Key:
[1] = molecular target: T1, ITGA2 protein on the surface of human tumor cells (human, UniProt P17301 30-1181); experiment: flow cytometry on HuCCT1 cells
T1 construct: whole, on cells; Endogenously expressed; the cell line is named under assay or readout; also called Integrin alpha-2; ITGA2-positive HuCCT1 cells
T1 sequence (looked up): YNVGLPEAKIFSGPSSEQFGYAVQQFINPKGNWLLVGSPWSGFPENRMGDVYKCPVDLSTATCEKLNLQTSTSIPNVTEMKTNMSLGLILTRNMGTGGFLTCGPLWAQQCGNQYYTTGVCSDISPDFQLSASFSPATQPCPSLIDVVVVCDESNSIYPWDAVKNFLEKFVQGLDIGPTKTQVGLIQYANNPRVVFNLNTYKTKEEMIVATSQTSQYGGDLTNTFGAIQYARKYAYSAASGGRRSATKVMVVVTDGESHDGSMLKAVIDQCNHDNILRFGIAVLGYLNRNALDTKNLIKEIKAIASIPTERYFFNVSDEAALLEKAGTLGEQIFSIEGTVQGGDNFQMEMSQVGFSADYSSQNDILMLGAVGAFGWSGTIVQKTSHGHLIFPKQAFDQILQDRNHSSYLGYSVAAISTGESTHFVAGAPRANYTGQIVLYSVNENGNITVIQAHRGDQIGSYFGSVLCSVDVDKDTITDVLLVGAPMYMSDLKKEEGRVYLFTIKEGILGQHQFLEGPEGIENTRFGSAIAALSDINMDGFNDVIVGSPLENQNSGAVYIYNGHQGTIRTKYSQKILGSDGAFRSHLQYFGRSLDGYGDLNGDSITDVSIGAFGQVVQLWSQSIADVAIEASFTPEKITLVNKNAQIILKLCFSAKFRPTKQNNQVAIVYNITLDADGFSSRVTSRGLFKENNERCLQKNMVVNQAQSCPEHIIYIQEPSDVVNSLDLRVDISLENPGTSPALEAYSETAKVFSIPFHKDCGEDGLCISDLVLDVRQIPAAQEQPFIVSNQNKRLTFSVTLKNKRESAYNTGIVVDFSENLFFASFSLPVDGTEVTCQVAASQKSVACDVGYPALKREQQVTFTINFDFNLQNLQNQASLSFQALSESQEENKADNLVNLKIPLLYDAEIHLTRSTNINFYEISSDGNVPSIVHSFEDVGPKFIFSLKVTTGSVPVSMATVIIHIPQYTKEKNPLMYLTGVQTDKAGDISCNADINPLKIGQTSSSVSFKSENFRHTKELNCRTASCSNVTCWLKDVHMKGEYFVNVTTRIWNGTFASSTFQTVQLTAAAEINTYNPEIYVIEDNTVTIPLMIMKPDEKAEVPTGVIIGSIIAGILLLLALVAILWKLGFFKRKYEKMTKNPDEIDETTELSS

[2] = molecular target: T2, ITGA2-His (UniProt P17301 30-1132, limits assumed); experiment: ELISA, plate coated with 2 ug/mL ITGA2-His, anti-human IgG-Fc-HRP detection
T2 construct: Coated on the ELISA plate at 2 ug/mL; whole entry P17301 is named; also called ITGA2 protein; not shown: His tag
T2 sequence (looked up): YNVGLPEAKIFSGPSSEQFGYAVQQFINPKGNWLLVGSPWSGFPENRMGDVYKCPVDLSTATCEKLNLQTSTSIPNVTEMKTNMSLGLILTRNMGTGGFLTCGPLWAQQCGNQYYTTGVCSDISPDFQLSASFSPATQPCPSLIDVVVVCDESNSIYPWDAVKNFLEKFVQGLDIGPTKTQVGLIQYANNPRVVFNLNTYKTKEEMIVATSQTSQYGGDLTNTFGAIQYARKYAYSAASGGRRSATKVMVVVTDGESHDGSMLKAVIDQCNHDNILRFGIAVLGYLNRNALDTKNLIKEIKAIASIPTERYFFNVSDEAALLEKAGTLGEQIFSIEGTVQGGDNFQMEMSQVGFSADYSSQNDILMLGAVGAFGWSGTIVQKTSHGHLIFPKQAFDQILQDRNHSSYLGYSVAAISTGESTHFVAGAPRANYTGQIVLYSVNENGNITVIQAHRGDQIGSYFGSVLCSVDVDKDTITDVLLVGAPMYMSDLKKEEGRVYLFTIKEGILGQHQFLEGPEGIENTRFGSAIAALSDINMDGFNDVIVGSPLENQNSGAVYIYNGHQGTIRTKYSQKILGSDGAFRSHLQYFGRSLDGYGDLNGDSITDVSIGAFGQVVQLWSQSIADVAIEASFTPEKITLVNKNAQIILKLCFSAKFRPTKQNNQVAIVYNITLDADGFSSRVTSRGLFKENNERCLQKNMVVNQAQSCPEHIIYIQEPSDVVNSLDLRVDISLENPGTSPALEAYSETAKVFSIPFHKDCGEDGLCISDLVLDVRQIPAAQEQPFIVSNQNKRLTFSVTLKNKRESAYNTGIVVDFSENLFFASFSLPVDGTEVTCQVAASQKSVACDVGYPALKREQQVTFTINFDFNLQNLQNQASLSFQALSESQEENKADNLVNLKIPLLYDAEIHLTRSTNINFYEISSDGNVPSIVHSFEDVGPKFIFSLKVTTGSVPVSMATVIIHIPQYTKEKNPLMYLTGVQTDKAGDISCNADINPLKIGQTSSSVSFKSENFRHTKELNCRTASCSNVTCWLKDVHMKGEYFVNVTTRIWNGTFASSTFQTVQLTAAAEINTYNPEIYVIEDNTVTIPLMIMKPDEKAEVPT

B1: Humanized antibody FS002-A153-H5L2 (antibody, human IgG1, kappa, V domains shown)
VH: QVQLVQSGAEVKKPGASVKVSCKASGYTFTDYEMHWVRQAPGQGLEWMGTIDPETGGTTYAQKFQGRVTMTADTSISTAYMELSRLRSDDTAVYYCARSGYYVSSYESYAMDYWGQGTTVTVSS
VL: DIVMTQSPDSLAVSLGERVTMNCKSSQSLLNSGNQKNYLTWYQQKPGQPPKLLIYGASTRESGVPDRFSGSGSGTDFTLTISSLQAEDVAVYYCQNDYSYPFTFGGGTKLEIKR
notes: Humanized IgG1 kappa
EC50 [1]: 0.22 nM
EC50 [2]: 0.009 nM

B2: Humanized antibody FS002-A208-H4L4 (antibody, human IgG1, kappa, V domains shown)
VH: B1 VH with M34I, M48I, T50A, T59N, A61N, M70L, A97S, S105N
VL: DIQMTQSPSSLSASVGDRVTITCRASQNVGTNVAWYQQKPEKAPKSLIYSASYRFSGVPSRFSGSGSGTDFTLTISSLQPEDFATYYCQQYNIYPLSFGGGTKLELKR
notes: Humanized IgG1 kappa
EC50 [1]: 0.6 nM
EC50 [2]: 0.017 nM

B3: Humanized antibody FS002-A103-H4L3 (antibody, human IgG1, kappa, V domains shown)
VH: B1 VH with T50V, A61N, M70L, A97S
VL: EIVMTQSPPTMSMSPGERVTLSCKASENVGTYVSWYQQKPGQAPRLLIYGASTRESGVPARFSGSGSGTDFTLTISSLQPEDFAVYYCQNDYSYPFTFGGGTKLEIKR
notes: Humanized IgG1 kappa
EC50 [1]: 0.08 nM
EC50 [2]: 0.006 nM

B4: Humanized antibody FS002-A226-H4L3 (antibody, human IgG1, kappa, V domains shown)
VH: B1 VH with M34I, M48I, T50A, T59N, A61N, M70L, A97S, S105N
VL: DIQITQSPSSMSASVGDRVTITCKASQDIKSYLSWYQQKPGKAPKLLIYDTSNLASGVPSRFSGSGSGTDYTLTISSLQPEDFATYYCQQWSSYPFTFGGGTKLEIKR
notes: Humanized IgG1 kappa
EC50 [1]: 0.533 nM
EC50 [2]: 0.024 nM

B7: Humanized antibody FS002-A226-H5L4 (antibody, human IgG1, kappa, V domains shown)
VH: B1 VH with M34I, T50A, T59N, A97S, S105N
VL: B4 VL with I4L, M11L, K24R, Y71F
notes: Humanized IgG1 kappa
EC50 [1]: 0.647 nM
EC50 [2]: 0.022 nM

B11: Humanized antibody FS002-A226-H5L3 (antibody, human IgG1, kappa, V domains shown)
VH: B1 VH with M34I, T50A, T59N, A97S, S105N
VL: B4 VL
notes: Humanized IgG1 kappa
EC50 [1]: 0.58 nM
EC50 [2]: 0.023 nM

B13: Humanized antibody FS002-A208-H3L4 (antibody, human IgG1, kappa, V domains shown)
VH: QVQLVQSGAEVKKPGASVKVSCKASGYTFTDYEIHWVRQAPGQGLEWIGAIDPETGGTNYNQKFNDRVTLTADKSISTAYMELSRLRSDDTAVYYCSRSGYYVSNYESYAMDYWGQGTTVTVSS
VL: B2 VL
notes: Humanized IgG1 kappa
EC50 [1]: 0.587 nM
EC50 [2]: 0.022 nM

B15: Humanized antibody FS002-A208-H5L4 (antibody, human IgG1, kappa, V domains shown)
VH: B1 VH with M34I, T50A, T59N, A97S, S105N
VL: B2 VL
notes: Humanized IgG1 kappa
EC50 [1]: 0.627 nM
EC50 [2]: 0.018 nM

B16: Chimeric mouse antibody FS002-A103 (antibody, human IgG1, kappa, V domains shown)
VH: QVQLQQSGAELVRPGASVTLSCKASGYTFTDYEMHWVKQTPVHGLEWIGVIDPETGGTTYNQKFNDKATLTADKSSSTAYMDLRSLTSEDSAVYYCSRSGYYVSSYESYAMDYWGQGTSVTVSS
VL: DIVMTQSPKSMSMSVGERVTLSCKASENVGTYVSWYQQKPEQSPKLLIYGASTRESGVPDRFTGSGSGTDFTLTISSVQAEDLAVYYCQNDYSYPFTFGSGTKLEIKR
notes: Chimeric; expressed in ExpiCHO-S
EC50 [1]: 0.633 nM
EC50 [2]: 0.017 nM

B17: Chimeric mouse antibody FS002-A226 (antibody, human IgG1, kappa, V domains shown)
VH: B16 VH with V2L, M34I, V50A, T59N, S105N
VL: DIKITQSPSSMYASLGERVTITCKASQDIKSYLSWYQQKPGSSPRLLIYDTSNLASGVPVRFSGRGSGTSYSLTISRMEAEDAATYYCQQWSSYPFTFGSGTKLEIKR
notes: Chimeric
EC50 [1]: 0.58 nM
EC50 [2]: 0.018 nM

B18: Chimeric mouse antibody FS002-A208 (antibody, human IgG1, kappa, V domains shown)
VH: B16 VH with M34I, V50A, T59N, S105N
VL: DIVMTQSQKFMSTSVGDRVSVTCKASQNVGTNVAWYQQKPGQSPKTLIYSASYRFSGVPDRFTGSGSGTDFTLTINNVQSEDLADYFCQQYNIYPLSFGAGTKLELKR
notes: Chimeric
EC50 [1]: 0.76 nM
EC50 [2]: 0.02 nM

B20: Vatelizumab (antibody, V domains shown)
VH: QVQLQESGPGLVKPSETLSLTCTVSGFSLTNYGIHWIRQPPGKGLEWLGVIWARGFTNYNSALMSRLTISKDNSKNQVSLKLSSVTAADTAVYYCARANDGVYYAMDYWGQGTLVTVSS
VL: DFVMTQSPAFLSVTPGEKVTITCSAQSSVNYIHWYQQKPDQAPKKLIYDTSKLASGVPSRFSGSGSGTDYTFTISSLEAEDAATYYCQQWTTNPLTFGQGTKVEIK
EC50 [1]: 0.78 nM
EC50 [2]: 0.008 nM

Now from value to binder:

EC50 [1]: 0.48 nM
EC50 [2]: 0.022 nM
B5: Humanized antibody FS002-A153-H5L5 (antibody, human IgG1, kappa, V domains shown)
VH: B1 VH
VL: EIVMTQSPPTLSLSPGERVTMSCRSSQSLLNSGNQKNYLTWYQQKPGQAPRLLIYGASTRESGVPARFSGSGSGTDFTLTISSLQPEDFAVYYCQNDYSYPFTFGGGTKLEIKR
notes: Humanized IgG1 kappa

EC50 [1]: 0.28 nM
EC50 [2]: 0.023 nM
B6: Humanized antibody FS002-A226-H3L4 (antibody, human IgG1, kappa, V domains shown)
VH: B13 VH with V2L, K74T
VL: B4 VL with I4L, M11L, K24R, Y71F
notes: Humanized IgG1 kappa

EC50 [1]: 0.42 nM
EC50 [2]: 0.014 nM
B8: Humanized antibody FS002-A153-H3L3 (antibody, human IgG1, kappa, V domains shown)
VH: B1 VH with V20L, M48I, A61N, M70L, A97S
VL: B1 VL with V19A, M21I
notes: Humanized IgG1 kappa

EC50 [1]: 0.58 nM
EC50 [2]: 0.027 nM
B9: Humanized antibody FS002-A153-H5L1 (antibody, human IgG1, kappa, V domains shown)
VH: B1 VH
VL: B1 VL with N22S, S69T
notes: Humanized IgG1 kappa

EC50 [1]: 0.487 nM
EC50 [2]: 0.024 nM
B10: Humanized antibody FS002-A153-H5L4 (antibody, human IgG1, kappa, V domains shown)
VH: B1 VH
VL: B5 VL with E1D, L13V, R24K, A66D
notes: Humanized IgG1 kappa

EC50 [1]: 0.127 nM
EC50 [2]: 0.006 nM
B12: Humanized antibody FS002-A103-H4L2 (antibody, human IgG1, kappa, V domains shown)
VH: B1 VH with T50V, A61N, M70L, A97S
VL: B3 VL with P9K, A60D
notes: Humanized IgG1 kappa

EC50 [1]: 0.313 nM
EC50 [2]: 0.011 nM
B14: Humanized antibody FS002-A153-H4L2 (antibody, human IgG1, kappa, V domains shown)
VH: B1 VH with M70L, A97S
VL: B1 VL
notes: Humanized IgG1 kappa

EC50 [1]: 0.333 nM
EC50 [2]: 0.008 nM
B19: Chimeric mouse antibody FS002-A153 (antibody, human IgG1, kappa, V domains shown)
VH: B16 VH with V50T
VL: B1 VL with D9S, A12T, S14T, L15A, R18K, N22S, S69T, L84V, V89L, G106S
notes: Chimeric
